In patent publication US20190040143A1 (AstraZeneca / MedImmune, published 2019):

Assays:
[1] = biological target: T1, recombinant HER3 (Cat. No. 348-RB, R&D Systems) (UniProt P21860 20-643); assay: HRG-HER3 binding ELISA: HRGb1 coated, antibody dilutions premixed with 5 ug/ml recombinant His-tagged HER3, bound HER3 detected with anti-His HRP; blocked ligand HRG
T1 construct: Detected through a His tag; also called labeled recombinant HER3 protein

[2] = biological target: human HER3 on human cancer cell lines (human, UniProt P21860 20-1342); assay: cell-based or functional assay

IC50 (read off the curve) [1]	potency by IC50 in HRGβ1-induced pHER3 ELISA, MCF-7 cells, against MM and AMG [2]	Binder
~0.7 mg/L		Clone 16 antibody (CL16), parental IgG1 (antibody, V domains shown, also called Clone 16-PA; parental Clone 16 monoclonal antibody) VH: EVQLLESGGGLVQPGGSLRLSCAASGFTFSYYYMQWVRQAPGKGLEWVSYIGSSGGVTNYADSVKGRFTISRDNSKNTLYLQMNSLRAEDTAVYYCARVGLGDAFDIWGQGTMVTVSS VL: QYELTQPPSASGTPGQRVTMSCSGSSSNIGLNYVSWYQQLPGTAPKLLISRNNQRPSGVPDRFSGSKSGTSASLAISGLRSEDEADYYCAAWDDSLSGEVFGGGTKLTVL
	~5 fold	2C2 monoclonal antibody (IgG1) (antibody, V domains shown) VH: EVQLLESGGGLVQPGGSLRLSCAASGFTFSYYYMQWVRQAPGKGLEWVSYIGSSGGVTNYADSVKGRFTISRDNSKNTLYLQMNSLRAEDTAVYYCARVGLGDAFDIWGQGTMVTVSS VL: QSVLTQPPSASGTPGQRVTISCSGSLSNIGLNYVSWYQQLPGTAPKLLISRNNQRPSGVPDRFSGSKSGTSASLAISGLRSEDEADYYCAAWDDSPPGEAFGGGTKLTVL
